# Assay results from patent publication CN113929774A (INST MICROBIOLOGY CAS, dated 2022).
# B1: 9K抗体 (antibody, V domains shown)
# VH: EVQLVESGGGVVQPGRSLGLSCAVSGFTFSSYAMHWVRQAPGKGLEWVALISNDGTIDSYADSVKGRFTISRDNSKNTLYLRMSSLRAEDTAVYYCARDKEQLVPTFDYWGQGTLVTVSS
# VL: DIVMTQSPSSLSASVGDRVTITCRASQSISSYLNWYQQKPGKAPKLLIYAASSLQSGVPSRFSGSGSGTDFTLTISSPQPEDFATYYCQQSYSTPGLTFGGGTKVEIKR
# Molecular target: SARS-CoV-2野生型(WT)活病毒的S蛋白 (hCoV-19/China/CAS-B001/2020) (SARS-CoV-2, UniProt P0DTC2 14-1273)
# Assay: cell-based or functional assay
binder,measurement,value
B1,"中和滴度(半抑制浓度，IC50), live virus CPE assay on Vero E6 cells",49.4 µg/mL
